The results in this text go back to PMC5042579 (Molecular Biology of the Cell, 2016).

In experiment [1] the target is T1, tau (human 1N4R-tau isoform, 412 amino acids) (human, UniProt P10636-7 1-412). The experiment can be described thus: TIRF microscopy of reconstituted dynamic microtubules.
Experiment [2] concerns the target T1, tau (human 1N4R-tau isoform, 412 amino …). As to the kind of experiment: pull-down.
Experiment [3] shares this target. The experiment can be described thus: other fluorescence titration.

B1: GFP-EB1-Δ-tail (GFP-EB1 lacking the last 20 amino acid residues) (domain or fragment)
chain: MAVNVYSTSVTSDNLSRHDMLAWINESLQLNLTKIEQLCSGAAYCQFMDMLFPGSIALKKVKFQAKLEHEYIQNFKILQAGFKRMGVDKIIPVDKLVKGKFQDNFEFVQWFKKFFDANYDGKDYDPVAARQGQETAVAPSLVAPALNKPKKPLTSSSAAPQRPISTQRTAAAPKAGPGVVRKNPGVGNGDDEAAELMQQVNVLKLTVEDLEKERDFYFGKLRNIELICQENEGENDPVLQRIVDILYA
Take B1: the binding result in experiment [1] is reported as “binds”.

B2: biotinylated EB1 (mouse end-binding protein 1) (natural protein)
chain: MAVNVYSTSVTSDNLSRHDMLAWINESLQLNLTKIEQLCSGAAYCQFMDMLFPGSIALKKVKFQAKLEHEYIQNFKILQAGFKRMGVDKIIPVDKLVKGKFQDNFEFVQWFKKFFDANYDGKEYDPVAARQGQETAVAPSLVAPALSKPKKPLGSSTAAPQRPIATQRTTAAPKAGPGMVRKNPGVGNGDDEAAELMQQVKVLKLTVEDLEKERDFYFGKLRNIELICQENEGENDPVLQRIVDILYATDEGFVIPDEGGPQEEQEEY
modifications: biotin (EZ-Link NHS-Chromogenic Biotinylation Kit)
B2: the binding result in experiment [2] is recorded as “binds”.

B3: EB1 (mouse end-binding protein 1), not labelled (natural protein)
chain: B2 chain
In turn, B3 registered a Kd in experiment [3] of 1700 ± 1100 nM.

For orientation: Kd means the concentration at which binding is half-saturated. A higher Kd goes with lower affinity.
